Like-named read-outs stand apart in the source and are kept apart here.
Experiments:
Assay in all cases: BLI
[1] = target: human IgG1 Fc-YEY variant (M252Y/N286E/N434Y) of the pH-dependent mAbs (human)
[2] = target: human IgG1 Fc-YPY variant (M252Y/V308P/N434Y) of the pH-dependent mAbs (human)
[3] = target: human IgG1 Fc-YTE variant (M252Y/S254T/T256E) of the pH-dependent mAbs (human)
[4] = target: human IgG1 wild-type (WT) Fc variant of the pH-dependent mAbs (human)
[5] = target: human IgG1 Fc-YEY variant (M252Y/N286E/N434Y) of the pH-dependent mAbs (human); remark: listed apart in the source
[6] = target: human IgG1 Fc-YPY variant (M252Y/V308P/N434Y) of the pH-dependent mAbs (human); remark: listed apart in the source
[7] = target: human IgG1 Fc-YTE variant (M252Y/S254T/T256E) of the pH-dependent mAbs (human); remark: listed apart in the source
[8] = target: human IgG1 wild-type (WT) Fc variant of the pH-dependent mAbs (human); remark: listed apart in the source

| Substance | Kd [1] | Kd [2] | Kd [3] | Kd [4] | Kd [5] | Kd [6] | Kd [7] | Kd [8] |
| --- | --- | --- | --- | --- | --- | --- | --- | --- |
| human FcRn (human neonatal Fc receptor) (from UniProt P55899 24-365) | 3.1 nM | 1.6 nM | 30 nM | 185 nM | 22 nM | 14 nM | 760 nM | > 10000 nM |
| cyno FcRn (cynomolgus monkey neonatal Fc receptor) (from UniProt Q8SPV9 24-365) | 4.3 nM | 2.2 nM | 76 nM | 853 nM | 66 nM | 28 nM | 1110 nM | – |

From publication PMC5627591
